{
  "source": "patent US8722043B2",
  "about": "“Induction of p53 expression by neutralization of neuropilin-2 for the treatment of cancers” (Diaclone, priority 2008, dated 2014)",
  "molecules": {"B1": {"name": "ITAC-B1: anti-human neuropilin-2 murine monoclonal antibody, VH SEQ ID No. 2, VL SEQ ID No. 4, produced by hybridoma CNCM 1-4054 (antibody, listed as Mus musculus, V domains shown)", "VH": "EVKLQESGAELVKPGASVKLSCTVSGFNIKDTYIHWVIQRPEQGLEWLGRIDPANGNTKYDPKFQGKATITADTSSNTAYLQLSSLTSEDTAVYYCARWAVVGDYWGQGTTLTVSS", "VL": "YCDHPLYKFLHVSAGDRVTITCKASQSVSDDVAWYQQKPGQSPKLLIYSASNRYTGVPDRFTGSGYGTDFTFTISTVQPEDLAVYFCQQDYSSPTFGSGTKLELK"}},
  "key": {"VEGFR1": {"test_system": "VEGFR1", "test": "Western blotting of VEGFR1 phosphorylation", "type": "cell-based, human", "settings": "20 μg/ml, 24 hours; HT29-NRP-2 and Colo320^siRNA-ctrl cells; treated versus not treated", "procedure": "(§1) The possible effect of the ITAC-B1 antibody on the degree of phosphorylation of a VEGF receptor (VEGFR1), and also on the phosphorylation of the AKT protein which is activated by means of the VEGF receptors, was studied on HT29-NRP-2 and Colo320^siRNA-ctrl tumour cells.\n(§2) The cells were cultured for 24 hours in RPMI medium+10% FCS in the presence of the BZ1 control antibody at 20 μg/ml, of ITAC-B1 at 20 μg/ml or of 5-FU at 50 μg/ml. A “nontreated cell” control was added (“medium” control). The cells were then isolated and lysed, and the phosphorylation of VEGFR-1 and of AKT was evaluated by Western blotting on the cell protein extracts, using antibodies directed against nonphosphorylated VEGFR1 (anti-VEGFR1 rabbit polyclonal antibody) or phosphorylated VEGFR1 (anti-phospho-VEGFR1^Tyr1213 rabbit polyclonal antibody, R&D systems) or antibodies directed against nonphosphorylated AKT (rabbit polyclonal antibody C67E7, Cell Signaling technology) or phosphorylated AKT (anti-phospho-AKT^Ser473 rabbit polyclonal antibody DE-9, Cell Signaling technology). The results are represented in FIGS. 16 and 17."}, "Colo320siRNA-ctrl cells": {"test_system": "Colo320siRNA-ctrl cells", "test": "Annexin V-APC apoptosis test with or without PFTα pretreatment", "type": "cell-based, human", "settings": "20 μg/ml, 5 h", "procedure": "In order to correlate the induction of apoptosis with p53 expression, the Colo320siRNA-ctrl cells were pretreated for 18 h with a chemical inhibitor of p53, pifithrin-α, at a dose of 27 μM (PFTα, Sigma). After pretreatment, the cells are washed twice with 3 ml of PBS and placed in a 24-well plate, at a rate of 100 000 cells/well in 1 ml of RPMI-10% FCS. Non-pretreated cells are placed under the same conditions. The cells are incubated for 5 h with a control murine isotype antibody (BZ1) or ITAC-B1 at 20 μg/ml and the apoptosis is measured as described above.\nFIG. 14 represents the results of the apoptosis-induction experiments carried out with the Colo320siRNA-ctrl cells pretreated or not pretreated with PFTα. The percentage of cells labelled with Annexin V-APC is indicated on the y-axis, the cell culture conditions are indicated on the x-axis (control consisting of medium, control consisting of medium supplemented with a control isotype antibody -BZ1-, test consisting of medium supplemented with the ITAC-B1 antibody). The results of the tests carried out with cells pretreated with PFTα are represented in light grey, those of the tests carried out with non-pretreated cells are represented in dark grey."}, "HT29-NRP-2 tumour cells": {"test_system": "HT29-NRP-2 tumour cells", "test": "HT29-NRP-2 subcutaneous xenograft, tumour volume", "type": "in vivo, immunodeficient mice", "procedure": "HT29-NRP-2 tumour cells were injected subcutaneously into 20 immunodeficient mice, at a rate of 1×10^6 cells per mouse, in the right flank. 10 days after the injection, the tumours measure approximately 5 mm×5 mm.\nIn accordance with the protocol described above, group B was inoculated with ITAC-B1 at D0 (12 mg/kg), D3 (6 mg/kg), D7 (12 mg/kg) and D10 (6 mg/kg). Group C was inoculated with 20 mg/kg of 5-FU from D0 to D4 and then with 100 mg/kg at D9. Group D was inoculated with ITAC-B1 at D0 (12 mg/kg), D3 (6 mg/kg), D7 (12 mg/kg) and D10 (6 mg/kg) and with 20 mg/kg of 5-FU from D0 to D4 and 100 mg/kg of 5-FU at D9.\nThe tumours were measured twice a week, and the volume of the tumours was calculated with the formula: V (mm^3)=d^2×D/2.\nFIG. 21 represents the tumour volume as a function of time. Group A (PBS control) is represented by (⋄), group B (mice inoculated with the ITAC-B1 antibody) is represented by (▪), group C (mice inoculated with 5-FU) is represented by (Δ), and group D (mice inoculated both with the ITAC-B1 antibody and with 5-FU) is represented by (x)."}, "[1]": {"test_system": "Colo320 human tumour cells", "test": "Tumour colony formation in semi-solid agar medium", "type": "cell-based", "procedure": "In order to determine whether the ITAC-B1 antibody has a neutralizing activity on the formation of tumour colonies in vitro, tests for tumour colony formation in vitro in a semi-solid agar medium containing agar were carried out. The principle of this test is based on bringing Colo320 human tumour cells (which express NRP-2 at their membrane surface and, furthermore, naturally secrete VEGF into the culture medium) into contact with the ITAC-B1 antibody. 4000 Colo320 cells are seeded into each well of a 24-well plate, in a semi-solid medium containing agar, and in the presence of 10 μg/ml of anti-NRP-2 antibody ITAC-B1. By way of comparison, the same test is carried out in the presence of cytotoxic agents with a proven action, i.e. 5-fluorouracil (5-FU), used at a rate of 50 μg/ml, or of Avastin® (bevacizumab: humanized monoclonal antibodies directed against VEGF), used at a rate of 50 μg/ml, or in the presence of a control isotype antibody (mouse IgG1 monoclonal antibody (BZ1)), used at a rate of 10 μg/ml.\nAt 10 days post-seeding, the colonies were counted under an optical microscope.\nSince neuropilin-2 is a coreceptor for VEGF, it was verified whether the activity of ITAC-B1 was dependent on an interaction between NRP-2 and the VEGF produced by the Colo320 cells. With this aim, the tests for Colo320-cell colony formation were carried out under the conditions described above, and in the presence of ITAC-B1 antibody (10 μg/ml), of bevacizumab (50 μg/ml) or of control antibody (10 μg/ml), used separately or in combination.\nThe results are given in FIG. 10: the y-axis represents the number of colonies formed; on the x-axis, the antibodies present in the culture medium are indicated by a “+”."}, "AKT protein": {"test_system": "AKT protein", "test": "Western blotting of AKT and its phosphorylation", "type": "cell-based, human", "settings": "20 μg/ml, 24 hours; HT29-NRP-2 and Colo320^siRNA-ctrl cells; treated versus not treated", "procedure": "as §1, §2"}},
  "data": [
    {"molecule": "B1", "values": [
      {"measurement": "phosphorylation status of VEGFR", "setting": "VEGFR1", "result": "similar"},
      {"measurement": "percentage of cells labelled with Annexin V-APC", "setting": "Colo320siRNA-ctrl cells; cells pretreated 18 h with PFTα 27 μM", "result": "approximately 28%"},
      {"measurement": "percentage of cells labelled with Annexin V-APC", "setting": "Colo320siRNA-ctrl cells; non-pretreated cells", "result": 41, "unit": "%"},
      {"measurement": "tumour volume", "setting": "HT29-NRP-2 tumour cells; group B: ITAC-B1 intraperitoneally D0 12 mg/kg, D3 6 mg/kg, D7 12 mg/kg, D10 6 mg/kg", "result": "reduction in tumour volume is observed starting from D14"},
      {"measurement": "tumour volume", "setting": "HT29-NRP-2 tumour cells; group D: ITAC-B1 combined with 5-FU, same regimens", "result": "more marked"},
      {"measurement": "number of colonies compared with the cells alone control", "setting": "[1]; ITAC-B1 10 μg/ml alone (FIG. 10)", "result": "greatly reduced"},
      {"measurement": "number of colonies", "setting": "[1]; ITAC-B1 10 μg/ml combined with bevacizumab 50 μg/ml (FIG. 10)", "result": "identical to that observed when the medium contains the ITAC-B1 antibody alone"},
      {"measurement": "amount of AKT and its phosphorylation status", "setting": "AKT protein", "result": "similar"}
    ]}
  ]
}
